In test [1] the target is EYFP-tagged full length myosin Va neck domain peptide containing six IQ domains (IQ1-6) (mouse) (UniProt Q99104). Nature of the test: FRET or BRET; FRET 2-hybrid (3^3-FRET and E-FRET) in single live HEK293 cells, room temperature, basal (resting) Ca2+: Tyrode's bath with 2 mM Ca2+; relative (effective) dissociation constants Kd,EFF; stoichiometry ratio ν = EA,max/ED,max. A general note: Bioluminescence resonance energy transfer reports proximity on the nanometre scale.

For test [2], the target named is EYFP tagged myosin Va four tandem IQ domain peptide (IQ3-6) (mouse) (UniProt Q99104). The test is described as above.
In test [3] the target is EYFP tagged myosin Va five tandem IQ domain truncation (IQ2-6) (mouse) (UniProt Q99104). Described as above.
The target in test [4] is CaV1.2 holochannel tagged with EYFP on its carboxy-terminus, co-expressed with β2a and α2δ subunits (UniProt P15381). The test is described as above.
For test [5], the target named is EYFP tagged myosin Va peptide containing a single IQ domain (IQ6) (mouse) (UniProt Q99104). The description is as above.
The target in test [6] is EYFP tagged myosin Va three tandem IQ domain peptide (IQ4-6) (mouse) (UniProt Q99104). The test is described as above.
Test [7] has as its target EYFP tagged myosin Va two tandem IQ domain peptide (IQ5-6) (mouse) (UniProt Q99104). The description is as above.
In test [8] the target is NaV1.4 with EYFP fused to its carboxy-terminus (rat) (UniProt P15390). Described as above.
Test [9] has as its target CaV1.2 holochannel tagged with EYFP on its carboxy-terminus, co-expressed with β2a and α2δ subunits (UniProt P15381). Briefly: FRET or BRET; FRET 2-hybrid (3^3-FRET and E-FRET) in single live HEK293 cells, room temperature, elevated cytosolic Ca2+: Tyrode's bath with 10 mM Ca2+ and 4 μM ionomycin; relative (effective) dissociation constants Kd,EFF; stoichiometry ratio ν = EA,max/ED,max.

Test [10] addresses YFP-fused myosin Va peptide containing five tandem IQ motifs (IQ2-6) (mouse) (UniProt Q99104). Briefly: FRET or BRET; FRET 2-hybrid in live HEK293 cells co-expressing a CFP-tagged and a YFP-tagged partner; 3^3-FRET (EA) and E-FRET (ED) efficiencies from single cells, room temperature; stoichiometry from the ratio EA,max/ED,max.
Test [11] has as its target EYFP-tagged myosin Va peptide containing two IQ domains (IQ5-6) (mouse) (UniProt Q99104). Described as above.
Test [12] addresses EYFP-fused myosin Va peptide containing four tandem IQ domains (IQ3-6) (mouse) (UniProt Q99104). Described as above.
Test [13] addresses EYFP-tagged myosin Va peptide containing three tandem IQ domains (IQ4-6) (mouse) (UniProt Q99104). The description is as above.
For test [14], the target named is ECFP fused myosin Va peptide containing five tandem IQ domains (IQ2-6) (mouse) (UniProt Q99104). Described as above.
Test [15] addresses ECFP tagged myosin Va peptide containing a single IQ domain (IQ6) (mouse) (UniProt Q99104). The test is described as above.
Test [16] deals with ECFP fused myosin Va peptide containing three tandem IQ domains (IQ4-6) (mouse) (UniProt Q99104). The description is as above.

Three substances from publication PMC5150656 can be followed below.

By Kd is commonly meant the free concentration of one partner at which half of the binding sites on the other are occupied at equilibrium, for simple one-to-one binding. One may read the stoichiometry N as a count of units in the complex or per binding partner.

Sequence of CaV1.2 holochannel tagged with EYFP on its carboxy-terminus, co-expressed with β2a and α2δ subunits (P15381 whole entry, stated change not applied, chain 1 of 3, other chains not shown, the tested form may be a part): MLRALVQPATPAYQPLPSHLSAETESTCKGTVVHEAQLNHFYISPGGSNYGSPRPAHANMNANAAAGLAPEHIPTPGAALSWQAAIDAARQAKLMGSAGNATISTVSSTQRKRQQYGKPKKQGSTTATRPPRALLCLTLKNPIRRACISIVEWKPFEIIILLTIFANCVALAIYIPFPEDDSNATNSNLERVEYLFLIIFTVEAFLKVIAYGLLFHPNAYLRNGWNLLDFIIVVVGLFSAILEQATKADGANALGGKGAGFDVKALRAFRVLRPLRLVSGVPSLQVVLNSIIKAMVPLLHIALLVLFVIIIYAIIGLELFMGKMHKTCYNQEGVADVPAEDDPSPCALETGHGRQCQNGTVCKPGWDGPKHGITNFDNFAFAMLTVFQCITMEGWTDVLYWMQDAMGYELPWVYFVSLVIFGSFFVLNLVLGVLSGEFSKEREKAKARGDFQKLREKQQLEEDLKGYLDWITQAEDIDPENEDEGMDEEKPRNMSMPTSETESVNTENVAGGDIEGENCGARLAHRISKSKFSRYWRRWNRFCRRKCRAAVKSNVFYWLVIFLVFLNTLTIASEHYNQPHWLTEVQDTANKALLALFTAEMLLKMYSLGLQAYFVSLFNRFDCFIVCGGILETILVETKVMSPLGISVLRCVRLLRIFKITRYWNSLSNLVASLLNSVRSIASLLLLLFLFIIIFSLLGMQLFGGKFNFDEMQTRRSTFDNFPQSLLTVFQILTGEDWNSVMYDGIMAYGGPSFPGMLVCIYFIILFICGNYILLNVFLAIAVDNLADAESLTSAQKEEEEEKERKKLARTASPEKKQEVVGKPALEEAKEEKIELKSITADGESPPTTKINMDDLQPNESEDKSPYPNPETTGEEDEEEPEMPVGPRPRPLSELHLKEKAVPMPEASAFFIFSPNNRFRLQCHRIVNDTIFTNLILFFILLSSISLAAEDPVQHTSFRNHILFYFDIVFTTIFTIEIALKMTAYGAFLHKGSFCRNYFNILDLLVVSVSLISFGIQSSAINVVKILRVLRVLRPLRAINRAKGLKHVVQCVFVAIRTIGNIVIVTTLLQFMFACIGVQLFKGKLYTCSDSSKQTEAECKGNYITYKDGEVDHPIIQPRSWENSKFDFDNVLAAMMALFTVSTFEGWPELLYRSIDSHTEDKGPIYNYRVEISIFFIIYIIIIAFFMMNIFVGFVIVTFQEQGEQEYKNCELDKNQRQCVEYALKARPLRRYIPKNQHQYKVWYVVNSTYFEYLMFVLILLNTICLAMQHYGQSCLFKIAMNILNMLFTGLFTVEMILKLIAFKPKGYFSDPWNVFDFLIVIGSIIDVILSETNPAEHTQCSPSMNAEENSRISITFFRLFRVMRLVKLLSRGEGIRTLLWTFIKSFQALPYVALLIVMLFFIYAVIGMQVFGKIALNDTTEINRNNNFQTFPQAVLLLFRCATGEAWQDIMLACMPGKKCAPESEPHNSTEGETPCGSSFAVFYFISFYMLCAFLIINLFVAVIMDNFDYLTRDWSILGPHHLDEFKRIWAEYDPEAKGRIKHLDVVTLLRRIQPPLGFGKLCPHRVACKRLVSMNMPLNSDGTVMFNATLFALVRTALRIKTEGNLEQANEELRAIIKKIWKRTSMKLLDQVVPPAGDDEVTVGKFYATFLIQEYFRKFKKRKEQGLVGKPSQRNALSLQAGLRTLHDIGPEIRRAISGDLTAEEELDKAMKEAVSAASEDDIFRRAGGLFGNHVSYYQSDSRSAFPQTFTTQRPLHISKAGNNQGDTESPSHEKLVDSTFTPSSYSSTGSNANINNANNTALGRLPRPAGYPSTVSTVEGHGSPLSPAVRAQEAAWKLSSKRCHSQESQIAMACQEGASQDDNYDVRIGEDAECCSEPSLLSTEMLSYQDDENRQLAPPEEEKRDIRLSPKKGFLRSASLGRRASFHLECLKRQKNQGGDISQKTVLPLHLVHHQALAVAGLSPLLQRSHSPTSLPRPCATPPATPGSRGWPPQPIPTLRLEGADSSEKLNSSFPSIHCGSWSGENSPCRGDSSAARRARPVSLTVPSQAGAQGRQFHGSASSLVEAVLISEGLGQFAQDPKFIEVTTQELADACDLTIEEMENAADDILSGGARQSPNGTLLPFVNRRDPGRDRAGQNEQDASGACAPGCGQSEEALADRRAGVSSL
Sequence of CaV1.2 holochannel tagged with EYFP on its carboxy-terminus, co-expressed with β2a and α2δ subunits (P54290 25-1091, stated change not applied, chain 3 of 3, other chains not shown, further chain): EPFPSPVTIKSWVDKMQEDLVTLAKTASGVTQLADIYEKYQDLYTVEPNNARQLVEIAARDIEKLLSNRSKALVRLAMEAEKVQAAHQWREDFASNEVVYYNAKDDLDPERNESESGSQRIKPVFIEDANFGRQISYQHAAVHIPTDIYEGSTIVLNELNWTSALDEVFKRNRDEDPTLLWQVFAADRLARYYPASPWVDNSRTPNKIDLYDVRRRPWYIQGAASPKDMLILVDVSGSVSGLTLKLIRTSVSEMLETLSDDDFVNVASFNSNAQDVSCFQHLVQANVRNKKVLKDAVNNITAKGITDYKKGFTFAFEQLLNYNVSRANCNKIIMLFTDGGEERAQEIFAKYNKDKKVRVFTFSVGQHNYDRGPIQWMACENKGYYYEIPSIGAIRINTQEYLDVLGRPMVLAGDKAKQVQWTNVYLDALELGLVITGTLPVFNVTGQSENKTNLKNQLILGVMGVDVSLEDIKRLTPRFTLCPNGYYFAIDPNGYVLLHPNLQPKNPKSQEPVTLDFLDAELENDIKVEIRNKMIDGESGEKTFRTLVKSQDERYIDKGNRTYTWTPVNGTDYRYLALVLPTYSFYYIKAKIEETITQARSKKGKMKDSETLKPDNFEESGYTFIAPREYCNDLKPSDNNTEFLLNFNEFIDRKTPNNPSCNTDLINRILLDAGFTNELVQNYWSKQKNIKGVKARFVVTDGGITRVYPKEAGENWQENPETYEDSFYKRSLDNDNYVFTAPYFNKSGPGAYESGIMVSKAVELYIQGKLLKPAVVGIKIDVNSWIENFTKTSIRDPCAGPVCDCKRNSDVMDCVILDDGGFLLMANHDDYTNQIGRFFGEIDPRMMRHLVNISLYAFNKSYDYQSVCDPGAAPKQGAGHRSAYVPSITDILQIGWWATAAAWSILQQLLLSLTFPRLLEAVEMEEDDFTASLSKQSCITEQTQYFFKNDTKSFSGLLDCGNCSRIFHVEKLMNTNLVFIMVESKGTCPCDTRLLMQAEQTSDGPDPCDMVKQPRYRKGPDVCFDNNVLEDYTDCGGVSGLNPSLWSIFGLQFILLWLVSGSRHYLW
Sequence of NaV1.4 with EYFP fused to its carboxy-terminus (rat) (P15390 whole entry, the tested form may be a part): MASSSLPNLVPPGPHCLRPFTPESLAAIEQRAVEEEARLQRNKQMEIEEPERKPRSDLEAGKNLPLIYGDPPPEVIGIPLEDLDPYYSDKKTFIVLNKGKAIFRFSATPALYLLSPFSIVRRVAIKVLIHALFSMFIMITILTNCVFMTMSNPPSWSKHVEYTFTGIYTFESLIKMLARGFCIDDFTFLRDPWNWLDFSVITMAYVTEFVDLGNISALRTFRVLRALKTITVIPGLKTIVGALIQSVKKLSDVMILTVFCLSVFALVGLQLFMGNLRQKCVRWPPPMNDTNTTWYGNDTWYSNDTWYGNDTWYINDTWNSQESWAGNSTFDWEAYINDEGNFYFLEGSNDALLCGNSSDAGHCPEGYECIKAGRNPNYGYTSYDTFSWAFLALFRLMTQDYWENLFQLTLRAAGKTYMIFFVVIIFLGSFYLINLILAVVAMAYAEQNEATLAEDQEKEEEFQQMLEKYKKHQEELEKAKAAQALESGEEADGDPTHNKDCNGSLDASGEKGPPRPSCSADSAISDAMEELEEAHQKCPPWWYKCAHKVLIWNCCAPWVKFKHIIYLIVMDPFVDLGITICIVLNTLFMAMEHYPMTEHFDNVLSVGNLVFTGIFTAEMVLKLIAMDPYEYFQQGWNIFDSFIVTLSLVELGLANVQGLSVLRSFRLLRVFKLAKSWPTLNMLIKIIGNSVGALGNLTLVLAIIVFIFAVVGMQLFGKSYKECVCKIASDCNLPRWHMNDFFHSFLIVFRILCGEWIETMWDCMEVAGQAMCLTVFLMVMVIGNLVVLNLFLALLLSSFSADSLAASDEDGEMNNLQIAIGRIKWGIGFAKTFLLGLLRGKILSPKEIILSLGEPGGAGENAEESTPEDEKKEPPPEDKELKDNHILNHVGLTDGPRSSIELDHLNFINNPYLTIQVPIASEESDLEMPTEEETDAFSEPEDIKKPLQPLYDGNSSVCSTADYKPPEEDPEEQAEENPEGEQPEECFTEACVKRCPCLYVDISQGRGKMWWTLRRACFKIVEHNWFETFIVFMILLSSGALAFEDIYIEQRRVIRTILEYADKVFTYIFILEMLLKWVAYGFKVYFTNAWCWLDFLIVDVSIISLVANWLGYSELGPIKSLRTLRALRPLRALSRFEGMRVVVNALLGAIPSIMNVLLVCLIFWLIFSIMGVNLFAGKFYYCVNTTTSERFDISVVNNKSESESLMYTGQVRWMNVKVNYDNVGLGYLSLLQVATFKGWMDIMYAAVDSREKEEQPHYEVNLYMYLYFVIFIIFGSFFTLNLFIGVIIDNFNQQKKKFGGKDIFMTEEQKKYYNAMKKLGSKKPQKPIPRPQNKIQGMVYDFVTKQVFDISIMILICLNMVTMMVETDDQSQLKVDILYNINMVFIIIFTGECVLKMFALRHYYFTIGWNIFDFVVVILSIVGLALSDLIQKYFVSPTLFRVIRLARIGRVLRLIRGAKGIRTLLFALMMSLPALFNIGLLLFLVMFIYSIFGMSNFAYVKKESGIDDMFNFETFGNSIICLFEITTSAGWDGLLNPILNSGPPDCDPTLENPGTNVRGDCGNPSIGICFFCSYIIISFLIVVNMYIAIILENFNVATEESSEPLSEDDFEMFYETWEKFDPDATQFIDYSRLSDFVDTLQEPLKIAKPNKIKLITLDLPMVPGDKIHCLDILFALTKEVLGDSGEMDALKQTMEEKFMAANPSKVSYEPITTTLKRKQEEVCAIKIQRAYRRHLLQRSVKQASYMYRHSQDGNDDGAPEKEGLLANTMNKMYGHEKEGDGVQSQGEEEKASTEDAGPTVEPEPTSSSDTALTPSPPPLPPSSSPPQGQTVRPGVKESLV
Sequence of ECFP tagged myosin Va peptide containing a single IQ domain (IQ6) (mouse) (Q99104 885-920): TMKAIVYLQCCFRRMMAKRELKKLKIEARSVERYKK

For the substance “ECFP-tagged calmodulin (CaM) (from UniProt P0DP23 1-149) (natural protein)”, the stoichiometry N (CaM per peptide (donors per acceptor)) in [1] was 5.91; in test [2], 4; in test [3] it was 5; in [5], 0.97; in test [6], 3; in test [7], 2. In addition, in test [4], the Kd worked out at 115 nM. The stoichiometry N (CaM per channel (donors per acceptor)) in test [4] is 1.1; in test [8], 1.14; in test [9], 1.94.

Take “ECFP-tagged calmodulin (from UniProt P0DP23 1-149) (natural protein)”: the stoichiometry N is 5 in test [10], 2 in test [11], 4 in test [12] and 3 in [13].

As to “EYFP-tagged calmodulin (from UniProt P0DP23 1-149) (natural protein)”, the values for the stoichiometry N in test [14], in test [15] and in [16] were 5, 1 and 3, respectively.
